Results on three molecules are retold here after patent publication US20220363757A1.

The chains are these.
B1: Fab fragment of antibody 15431 (Fab, not shown: a dimerising Fc or GST)
heavy: QVQLQQSGPGLVKPSQTLSLTCAISGDSVSSNSAAWNWIRQSPSRGLEWLGRTYYRSKWYNDYAVSVKSRITINPDTSKNQFSLQLNSVTPEDTAVYYCARDDDWNDFDYWGQGTLVTVSS
light: not shown
B2: Fab fragment of antibody 15011 (Fab, not shown: a dimerising Fc or GST)
heavy: EVQLLESGGGLVQPGGSLRLSCAASGFDFRSYAMMWVRQAPGKGLEWVGGINGEVGGSNTYYAPAVKGRATISRDNSKNTLYLQMNSLRAEDTAVYYCVKGAGACGICNDDIDAWGQGTLVTVSS
light: SYELTQDPAVSVALGQTVRITCSGAGSYAGSYYYGWHQQKPGQAPVTVIYDNDKRPSNIPDRFSGSSSGNTASLTITGAQAEDEADYYCGSTNDNDDGGLFGSGTKVTVLGQPKANPTVTLFPPSSEELQANKATLVCLISDFYPGAVTVAWKADGSPVKAGVETTKPSKQSNNKYAASSYLSLTPEQWKSHRSYSCQVTHEGSTVEKTVAPTECS
B3: Fab fragment of antibody 15532 (Fab, not shown: a dimerising Fc or GST)
heavy: QVQLQQWGAGLLRPSETLSLTCAVYGESFSGYYWNWIRQPPGKGLEWIGEINHSGSTNYNPSLKSRVTISVDTSKTQFSLKLSSVTAADTAVYYCARGWDLLDWNDYWNEYWGQGTLVTVSS
light: not shown

Chain of cynomolgus LAG-3 ECD human IgG1 Fc fusion (cynomolgus; human), P18627 (P18627 other isoform, or with tags, fused parts or gaps, form in doubt): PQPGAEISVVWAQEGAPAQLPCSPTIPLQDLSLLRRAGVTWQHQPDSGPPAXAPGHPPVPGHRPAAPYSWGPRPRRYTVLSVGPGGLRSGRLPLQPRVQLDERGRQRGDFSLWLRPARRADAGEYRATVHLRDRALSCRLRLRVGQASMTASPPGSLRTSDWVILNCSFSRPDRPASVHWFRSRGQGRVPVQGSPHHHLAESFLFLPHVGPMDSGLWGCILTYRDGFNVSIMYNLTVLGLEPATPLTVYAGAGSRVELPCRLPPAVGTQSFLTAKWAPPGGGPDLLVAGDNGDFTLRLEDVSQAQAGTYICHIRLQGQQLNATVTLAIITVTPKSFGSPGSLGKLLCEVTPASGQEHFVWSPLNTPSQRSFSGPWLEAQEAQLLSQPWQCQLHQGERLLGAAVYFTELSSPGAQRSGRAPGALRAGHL

This test concerns the target cynomolgus LAG-3 ECD human IgG1 Fc fusion (cynomolgus; human), P18627. Briefly: SPR, Fab over captured LAG-3 ECD-Fc. Background: In SPR one partner is held on a chip, and binding of the other changes the refractive index at the surface.
One may read the Kd as a measure of binding affinity in units of concentration. High values mean weaker binding, low ones tighter binding. A word on the koff: it is the rate constant with which the complex falls apart. A higher koff goes with a short-lived complex. The term kon denotes a measure of how fast the partners come together. Read a high kon as fast association. With B1, the Kd amounted to 120 nM, the koff is 0.0068 s⁻¹ and the kon was 59000 M⁻¹ s⁻¹.
For B2, in that order: 35 nM, 0.0025 s⁻¹ and 70000 M⁻¹ s⁻¹.
For B3, in that order: 68 nM, 0.0048 s⁻¹ and 71000 M⁻¹ s⁻¹.
